Laboratory results from the nanobody polyreactivity screen of Harvey et al. (2022).

test: yeast display, Sf9 membrane polyspecificity reagent, FACS + sequencing; frameworks hold sequencing errors
Method in brief: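 Galactose induction of a Saccharomyces cerevisiae BJ5465 synthetic nanobody display library ran 36–48 hours. The cells were then stained for 1 hour at 4 °C with 10% biotinylated, detergent-solubilized Sf9 membrane reagent, pulled down on streptavidin microbeads and FACS-sorted into low and high (top ~1%) gates on expression and reagent-binding fluorescence. Labels for polyreactivity follow the gate of origin.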

Row | Sequence | polyreactivity (PSR sort gate)
1 | QVQLVESGGGLVQAGGSLRLSCADSGSIFAGNAMGWYRQAPGKERELVAAISRRGGSTYYADSVKGRFTISRDNAKNTVYLQMNSLKPEDTAVYYCNALLRYAYHAAYGYWGQGTQVTVSS | high polyreactivity
2 | QVQLVESGGGLVQAGGSLRLSCADSGSIFAYNGMGWKRQAPGKERELVAAISRGGRTSYADSVKGRFTISRDNAKNTVYLQMNSVKPEDTAVYYCNAVYRWFSSAYVYSSGYNGDYWGQGTQVTVSS | high polyreactivity
3 | QVQLVESGGGLVQAGGSLRLSCADSGSIFGYYAMGRYRQAPGKERELVAAISDGGTITYYADSVKGRFTISRDNAKNTVYLQMNSLKPEDTAVYYCAARSPPRYYEHSYYYWGQGTQETVSS | high polyreactivity
4 | QVQLVESGGGLVQAGGSLRLSCADSGSIFQPYAMGWYRQAPGKERELVAAINGRGGSTHYADSVKGRFTISRDNEKNSVYLQMNSLKPEDTAVYDCAARYYRDYRWYTYAYDYWGQGTQVTVSS | high polyreactivity
5 | QVQLVESGGGLVQAGGSLRLSCADSGSIFWGYAMGWYRQAPGKERELVAVISRGGSTYYADSVKGRFTISRDNAKNTVYLQMNSLKPEDTAVYYCAASSSWFYSPEYDYWGQGTQVSVSS | low polyreactivity
6 | QVQLVESGGGLVQAGGSLRLSCADSGSIIGINAMGWYRQAPGKERELVAANNGGGSTYYADSVKGRFTISRDNAKNSVYLQMNSLKPEDTAVYYCAAEWGTSWYDYWGQGTQVTVSS | low polyreactivity
7 | QVQLVESGGGLVQAGGSLRLSCADSGSISYYAIGWYRQAPRKESELVAAISSSGGSTYYADSVNGRFTISRDNAKNTVYLQMNSLKPEDTAVYYCAAAVTGCYASDYWGQGTQVTVSS | high polyreactivity
8 | QVQLVESGGGLVQAGGSLRLSCADSGSTFPWYAMGWYRQAHGKERELVADISFSGGSTYYSDSVKGRFTISRDNAKNTVYLQMNSLKPEDTAVYYCASETSFLRHAYQSDSFDYWGQGTQVTVSS | high polyreactivity
9 | QVQLVESGGGLVQAGGSLRLSCADSGSTFRYNAMGWYREAPGKERELVADIRRSGGSTYYADSVKGRFTISRDKAKNTVYLQMNSLKPEDTAVYYCNAAVSRLYYHSYSYRSYYYWGQGTQVTVSS | high polyreactivity
10 | QVQLVESGGGLVQAGGSLRLSCADSGSTFSYYAMGWYRQAPGKEGELVAAISARGGSTNYADSVKGRFTISRDNAKNTVYLQMNSLKPEDTAVYYCAAYDPLVDYFRYAYSDDYWGQGTQVTVSS | high polyreactivity
11 | QVQLVESGGGLVQAGGSLRLSCADSGSTFVSNTMGWYRQAPGKERELVAAISSSGGSTYYADSVKGRFSISRDNAKNTVYLQMNSLKPEDTAVYYCAAYYRAYRRDYYWGQGTQVTVSS | high polyreactivity
12 | QVQLVESGGGLVQAGGSLRLSCADSGSTFWYDMGWYRQAPGKERELVAAISDAGSTYYADSVKGRFTISRDNAKITVYLQMNSLKPEDTGFYFCAADGVYWRWYLYTFWMDYWGQGTQVTVSS | low polyreactivity
13 | QVQLVESGGGLVQAGGSLRLSCADSGYTFGTYAMGWYIKAPGKERELVAAISNSGGSTYYADSVKGRFTISRDNAKNTVYLQMNSLKPEDTAVYYFNTDGLVRNGPFYSWGLGTQVTVSS | low polyreactivity
14 | QVQLVESGGGLVQAGGSLRLSCADSGYTIILYVMGWYRQAPGKERELVAVITLSGGITYYADSVKGRFTISRDNAKNTVYLQMNSLKPEDTAVYYCAVDVYHNRYFTLTSWYHYDSWGQGTQVTVSS | low polyreactivity
15 | QVQLVESGGGLVQAGGSLRLSCADSRSTFYIYAMGWYRQAPGKERELVAAIRRSGGSTYYADSVKGRFTISRDNAKNTVYLQMISLKPEDTAVYYCATRYLWRPRPYDYWGQGTQVTVSS | high polyreactivity
16 | QVQLVESGGGLVQAGGSLRLSCADYGIIFSPYAMGWYRQAPGKERELVAAISYSGGSTYYADSVKGRFTISRDNAKNTVKLQMNSLKPEDTAVYYCAVVYSYYLAVLGYWDYDYWGQGTQVTVSS | low polyreactivity
17 | QVQLVESGGGLVQAGGSLRLSCAGSGFIITQYPMGWYRQAPGKERELVAAISGNGGRTYYADSVKGRFTISRDNAKNTDYLQMNSLKPEDTAVYYCAVTRPGRRYPFGYDYWGQGTQVTVSS | low polyreactivity
18 | QVQLVESGGGLVQAGGSLRLSCAGSGFTFGIYAMGSDRQAPGKERELVAAISSSGGSTYYADSVKGRFTISRDNAKNTVYLQMNSLKPEDTAVYYCAAVNSRRRYWYDYWGQGTQVTVSS | high polyreactivity
19 | QVQLVESGGGLVQAGGSLRLSCAGSGIILYWNTMGWYRHAPGKERELVAAITWSVGRTYYADSVKGRFTISRDNAKNTVYLQMNSLKPEDTAVYYCATTFQYYWFSLYDYWGQGTQVTVSS | low polyreactivity
20 | QVQLVESGGGLVQAGGSLRLSCAGSGRIFTQYAMGWYGQAPGKERELVAAINASDGSTYADSVKGRFTISRDNAKNTVYLQMNSLKPEDTAVYYCNVTGGPYDFTRWSEFDHWGQGTQVTVSS | low polyreactivity
21 | QVQLVESGGGLVQAGGSLRLSCAGSGRIFVSYAMGWYRQAPGKERELVAAITRSGGSTYYADSVKGRFTISRDNAKNTVYLQMNSLKPEDTAVYYCNAYIPRTRYRSGYWGQGTQVTVSS | high polyreactivity
22 | QVQLVESGGGLVQAGGSLRLSCAGSGRTFGRYAMGGYRQAPGKERELVAAIRSGGSTYYADSVKGRFTISRDNAKNTVYFQMNSLKPEDTAVYYCAADSTSLYNYWGQGTQVTVLS | low polyreactivity

Row | Sequence | polyreactivity (PSR sort gate)
23 | QVQLVESGGGLVQAGGSLRLSCAGSGSIFKRYAMGWYRQAPGKERELVAAITSRGGSTYYADSVKGRFTISRDTAKNTVYLQLNSLKPEDTAVYYCAATRSSTNGYDYWGQGTQVTVSS | high polyreactivity
24 | QVQLVESGGGLVQAGGSLRLSCAGSGSTFGGYAMGWYRQAPGKEWELVAAINSGGSTYYADSVKGRFTISRDNAKNTVYLQMNSLKPEDTAVYYCNADSQVIRDYIFDYWGQGTQVTVSS | low polyreactivity
25 | QVQLVESGGGLVQAGGSLRLSCAGSGSTFQRYGMGWYRQAPGKEREFVAAISTSGGITYYADSVKGRFTISRDNAKNTVYLQMNSLKPEDTAVYYCAARTARHVRYWAGWRDYWGQGTQVTVSS | high polyreactivity
26 | QVQLVESGGGLVQAGGSLRLSCAGSGSTLAIYAMGWYRHAPGKERELVAAISGGGSTYADSVKGRFTISRDNAKNTVYLQMISLKPEDTAVYYCNADGWGDRFWSNFRFDYWGQGTQVTVSS | low polyreactivity
27 | QVQLVESGGGLVQAGGSLRLSCAHSASTLQIYAMGWDRQAPGKESELVASISSTTSTNYADSVMGRFTISRDNAKNTVYLQMNSMKPEDTAVYYCARERFGGTDSQVVPWFRFDYDYWGQRTQVTVSS | low polyreactivity
28 | QVQLVESGGGLVQAGGSLRLSCAPCGFTFRRNAMGWYRQAPGKERELVAAINWSGGSTYYADSVKGRFTLSRDNAKNNVYLQMNSLKPEDTAVYYCNRRGQYTFWPIHEYWGQGTQVTVSS | high polyreactivity
29 | QVQLVESGGGLVQAGGSLRLSCAPSAFTFKYYSMGWYRHTPGKESELVAVISWSGGSTYYADSVKGRFTISRDYAKNTVYLHMNSQKPEDTAVYYCAAYERKFYTVSRWYKLDYWGQGTQVTVSS | high polyreactivity
30 | QVQLVESGGGLVQAGGSLRLSCAPSGCTLGAYAMGWYRQAPGKVRELVADISSRGASTYYEDSVKGRFTISRDHAKNTVYIQMNSLKPEDTAVYDCARAVYIWYGYGYFPEYEYWGQGTQVTVSS | low polyreactivity
31 | QVQLVESGGGLVQAGGSLRLSCAPSGFIFIRYAMGWYRQAPGKERELVASISWRGESTYYADSVKWRFTISRDNAKNTVYLQRNILKPEDTAVYYCAATGINSGPGRMDYWGQGTQVTVSS | high polyreactivity
32 | QVQLVESGGGLVQAGGSLRLSCAPSGFIFYTNAMGWYRQAPGKDRELVAAITCIGVSTYYADSVKGRFTISRDYAKNTVYLKMNSLKPEDTEVYYCAADRNFLIFTPDNLTMDYWGQGTQVTVSS | low polyreactivity
33 | QVQLVESGGGLVQAGGSLRLSCAPSGFSFRQYAMGWYRQAPGKERELVAAISSSGGRTYYADSVKGRCTISRDNAKNTVYLQMNSLKPEDSAVYYCNARAWLRGEYGEGYWGQGTQVTVSS | high polyreactivity
34 | QVQLVESGGGLVQAGGSLRLSCAPSGFTFDPYAMGWYRQAPGKERELVAAIDYSGGTTYYADSVKGRFTISRDNAKNTVYLQMNSLKPEDTAVYYCAAEYTYYHWWGYDYWGQGTQVTVSS | high polyreactivity
35 | QVQLVESGGGLVQAGGSLRLSCAPSGFTFLGYDMGWYRQAPGKERELVAAIDYSGGSTYYADSVKGRFTISRDNAKNTVFLQMNSLKPEDTAVYDCAAEYQSGPYTWYEYWGQGTQVTVSS | high polyreactivity
36 | QVQLVESGGGLVQAGGSLRLSCAPSGFTFLYYVMGWYRQAPGKERELVAAINAGGGSTYYAESVKGRFTLSRDNAKNSVYLQMKSLKPADTAVYYCNARVRVRLGRNWSSYYDWGQGTQVTVSS | high polyreactivity
37 | QVQLVESGGGLVQAGGSLRLSCAPSGFTFRIYAMGWYRQAPGKERELVAAISWAGGSTFYADSVKGRFTISRDNAKNTVYLQLNSLKPEDTAVYYCAADTAFNYDYWGQGTQVTVSS | low polyreactivity
38 | QVQLVESGGGLVQAGGSLRLSCAPSGGTFPVYAMGWYRQAPGKERELVAAISYSGVTTYNADSVKGRFTISRDNAKNTVYLQMNSLKPEVTAVYYCNADWRPWYMFSYDYWGQGTQVTVSS | low polyreactivity
39 | QVQLVESGGGLVQAGGSLRLSCAPSGIFYKYAMGWYRQAPGKERELVAAISISGTSTYYADSVKGRFTISRDNAKNTVYLQMNSLKPEDTAVYYCAADEFYFAPPVAGENYWGQGTQVTVSS | low polyreactivity
40 | QVQLVESGGGLVQAGGSLRLSCAPSGIIFQFYAMGWYRQAPGKERELVAAISRSGGITHYADSVKGRFTISRDNAKNTVYLQMNSLKPEDTAVYYCAAVRQAYPRLDYWGQGTQVTVSS | high polyreactivity
41 | QVQLVESGGGLVQAGGSLRLSCAPSGITFRPNAMGWYRQARGKERELVAAISSGDGTYADSVKGRFTISRDNAKNTVYLQMNSLKPEDSAVYYCNATGQSYVTSEYDYWGQGTQVTVSS | low polyreactivity
42 | QVQLVESGGGLVQAGGSLRLSCAPSGITFRVNAMGWYRQAPGKERELVASISRSGGSTYYADSVKGRFTISRDHAKNNVYLQMKSLKPEDTAVYYCADAQKVLFYGRWFDYWGQCTQVTVSS | low polyreactivity
43 | QVQLVESGGGLVQAGGSLRLSCAPSGLIFAHYDMGWYRHAPGKERELVAGITSGGSTNYADSVKGRFTISRDNAKITVYLQMNSQKPEYTAVYYCNADRAGFLGFYLYDYWGQGTQVTVSS | low polyreactivity
